Measured values published in patent US20190117751A1 (SAPPORO MEDICAL UNIVERSITY, published 2019).

Key:
[1] = target: T1, HLA-A24 molecule on the cell surface (HLA-A*2402) (human); assay: HLA-A24 stabilisation assay on T2-A24 cells, flow cytometry with C7709A2
T1 construct: also called HLA-A24 antigen
Protocol: T2-A24 cells, which are HLA-A24-expressing T2 cells, were preincubated in a CO₂ incubator at 27° C. overnight. The cells collected were resuspended in Opti-MEM and plated on a round bottom 96 well plate (Corning) with about 1×10⁵ cells/200 μL per well. A subject peptide was added at concentrations of 0.33 μM, 1 μM, and 10 μM, and incubation was carried out in a CO₂ incubator at 27° C. for 3 hours and subsequently at 37° C. for 2.5 hours. Subsequently, the cells were subjected to centrifugation (380 g, 5 minutes) as they were on the plate, resuspended in 100 μL of a C7709A2 monoclonal antibody-producing hybridoma culture supernatant, and incubated on ice for 45 to 60 minutes. The cells were washed with ice-cooled PBS and then incubated together with an FITC-conjugated goat anti-mouse IgG antibody (KPL, Gaithersburg, Md.) on ice for 30 minutes.

[2] = target: T1, HLA-A24 molecule on the cell surface …; assay: not clear: FIG. 7 has no binding assay panel

binding result [1]	binding result [2]	Binder
binds	–	RYGNVSHF (Synthetic peptide; also called RF8) [SUV39H2-derived natural antigen peptide of SEQ ID No: 2 (RYGNVSHF)]
–	binds	IFQGNVHNF (Synthetic peptide) [SNRNP40-derived natural peptide of SEQ ID No: 4 (IFQGNVHNF)]
binds	–	HWNDTRPAHF (also called HF10) [PVT1-derived natural antigen peptide of SEQ ID No: 1 (HWNDTRPAHF)]
